Reference: publication PMC3201874

Target: huPrP(23-110) (human) (UniProt P04156)
Conditions: FRET: 25 mM Tris-HCl pH 7.5, 30 mM NaCl, 0.2 mM MgCl2, 20 C

huPrP(23-110) (human), sequence (P04156 23-110): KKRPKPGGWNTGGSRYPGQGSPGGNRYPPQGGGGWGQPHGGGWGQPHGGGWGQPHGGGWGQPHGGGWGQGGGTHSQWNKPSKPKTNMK

With cTAR the Ka was over 1e+07 M⁻¹.
